The values that follow come from publication PMC5771576.

Read-outs that look alike come from different tables or passages of the source.

Data set [1] deals with T1, Cys14 (UniProt position 14, AANWKCNGSQQ). Kind of data set: chemical modification. As to conditions: not stated for the 1 min MMTS incubation (activity assay at 25°C); 100 mM TEA, 10 mM EDTA; ligand-free folded enzyme, 250 ug/mL.
For data set [2], the target named is T1, Cys14. To be noted: cited from earlier work.
Data set [3] concerns the target T2, Cys14 (UniProt position 15, AANWKCNGSES). Kind of data set: chemical modification. To be noted: not stated for the 1 min MMTS incubation (activity assay at 25°C); 100 mM TEA, 10 mM EDTA; ligand-free folded enzyme, 250 ug/mL.
Data set [4] concerns the target T2, Cys14. To be noted: cited from earlier work.

As for “Triosephosphate isomerase (WT TbTIM) (Trypanosoma brucei)”, the figures for the pKa in data set [1] and in data set [2] were 10.56 ± 0.22 and 10.53, respectively.
“Triosephosphate isomerase (WT TcTIM) (Trypanosoma cruzi)”: the pKa is listed as 9.24 ± 0.04 in data set [3] and 9.27 in data set [4].
The substance “Triosephosphate isomerase triple mutant TbTIM: F28L, A100L, A115Q (Trypanosoma brucei; F28L;A100L;A115Q)” displayed a pKa in data set [1] of 9.23 ± 0.03.
With “Triosephosphate isomerase triple mutant TcTIM: L28F, L100A, Q115A (Trypanosoma cruzi; L28F;L100A;Q115A)”, in data set [3], the pKa is 10.69 ± 0.01.

Broadly, the pKa is the negative logarithm of the acid dissociation constant.
